In US20040087497:

Legend:
[1] = biological target: T1, Suc-Leu-Ala-Gly-Dox
T1 chain: XAX

[2] = biological target: T2, Suc-βAla-Leu-Ala-Leu-Dox
T2 chain: XLAX

B1: human CD10 (protein)
chain: GKSESQMDITDINTPKPKKKQRWTPLEISLSVLVLLLTIIAVTMIALYATYDDGICKSSDCIKSAARLIQNMDATTEPCTDFFKYACGGWLKRNVIPETSSRYGNFDILRDELEVVLKDVLQEPKTEDIVAVQKAKALYRSCINESAIDSRGGEPLLKLLPDIYGWPVATENWEQKYGASWTAEKAIAQLNSKYGKKVLINLFVGTDDKNSVNHVIHIDQPRLGLPSRDYYECTGIYKEACTAYVDFMISVARLIRQEERLPIDENQLALEMNKVMELEKEIANATAKPEDRNDPMLLYNKMTLAQIQNNFSLEINGKPFSWLNFTNEIMSTVNISITNEEDVVVYAPEYLTKLKPILTKYSARDLQNLMSWRFIMDLVSSLSRTYKESRNAFRKALYGTTSETATWRRCANYVNGNMENAVGRLYVEAAFAGESKHVVEDLIAQIREVFIQTLDDLTWMDAETKKRAEEKALAIKERIGYPDDIVSNDNKLNNEYLELNYKEDEYFENIIQNLKFSQSKQLKKLREKVDKDEWISGAAVVNAFYSSGRNQIVFPAGILQPPFFSAQQSNSLNYGGIGMVIGHEITHGFDDNGRNFNKDGDLVDWWTQQSASNFKEQSQCMVYQYGNFSWDLAGGQHLNGINTLGENIADNGGLGQAYRAYQNYIKKNGEEKLLPGLDLNHKQLFFLNFAQVWCGTYRPEYAVNSIKTDVHSPGNFRIIGTLQNSAEFSEAFHCRKNSYMNPEKKCRVW
[1]
  Percent Conversion/Hour to Gly-Dox, CD10 transfected CHO Clone 8 (Percent Conversion/Hour): 0.61
  conversion rate to Gly-Dox, CD10 transfected CHO Clone 8: 0.06 mM/h
[2]
  Percent Conversion/Hour to Leu-Dox, CD10 transfected CHO Clone 8 (Percent Conversion/Hour): 3
  conversion rate to Leu-Dox, CD10 transfected CHO Clone 8: 0.3 mM/h
